Assay results from publication PMC2206118.

Assays:
FIR1+2 F157L = FIR1+2 F157L (human, UniProt Q9UHX1-2 101-299, R106G;C112S;C238A;F157L); test: fluorescence anisotropy
FIR1+2 Y115L = FIR1+2 Y115L (human, UniProt Q9UHX1-2 101-299, R106G;C112S;C238A;Y115L); test: fluorescence anisotropy
FIR1+2 WT (FIR RRM1+2) [1] = molecular target: T1, FIR1+2 WT (FIR RRM1+2) (human, UniProt Q9UHX1-2 101-299, R106G;C112S;C238A); test: fluorescence anisotropy
FIR1+2 F254L = FIR1+2 F254L (human, UniProt Q9UHX1-2 101-299, R106G;C112S;C238A;F254L); test: fluorescence anisotropy
Chain of FIR1+2 F254L (Q9UHX1 118-316 R123G/C129S/C255A/F271L): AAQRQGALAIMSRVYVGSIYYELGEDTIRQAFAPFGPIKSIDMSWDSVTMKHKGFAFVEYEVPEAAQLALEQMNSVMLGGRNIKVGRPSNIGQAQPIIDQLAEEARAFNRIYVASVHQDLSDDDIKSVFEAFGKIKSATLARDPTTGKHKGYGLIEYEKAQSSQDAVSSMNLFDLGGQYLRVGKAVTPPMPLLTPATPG

FIR1+2 WT (FIR RRM1+2) [2] = molecular target: T1, FIR1+2 WT (FIR RRM1+2); test: X-ray crystallography

T1 sequence (Q9UHX1 118-316 R123G/C129S/C255A): as the sequence (Q9UHX1 118-316 R123G/C129S/C255A/F271L) above, with L154F counted along it
Chain of FIR1+2 F157L (Q9UHX1 118-316 R123G/C129S/F174L/C255A): as the sequence (Q9UHX1 118-316 R123G/C129S/C255A/F271L) above, with F57L, L154F counted along it
Chain of FIR1+2 Y115L (Q9UHX1 118-316 R123G/C129S/Y132L/C255A): as the sequence (Q9UHX1 118-316 R123G/C129S/C255A/F271L) above, with Y15L, L154F counted along it

## CCTCGGGATTTTTTATTTTGTGTTATT (ssDNA) [H27 (FUSE), fluorescein]
FIR1+2 F157L
  Kd: 140 ± 85 µM
FIR1+2 Y115L
  Kd: 81 ± 31 µM
FIR1+2 WT (FIR RRM1+2) [1]
  Kd: 2.3 ± 1.8 µM
FIR1+2 F254L
  Kd: 0.17 ± 0.13 µM

## TCGGGATTTTTTATTTTGTGTTATT (ssDNA) [H25 (FUSE)]
FIR1+2 WT (FIR RRM1+2) [2]
  binding result: binds
